Laboratory results from publication PMC5374410, “Identification of a Potent Allosteric Inhibitor of Human Protein Kinase CK2 by Bacterial Surface Display Library Screening” (Pharmaceuticals, 2017).

Experiments:
[1] = biological target: CK2α-pAzF coupled to DBCO-Sulfo-Cy5 (human) (UniProt P68400); experiment: MST; B2 titrated (7.6 nM to 125 or 250 µM) to 100 nM fluorophore-labelled CK2α-DBCO-Sulfo-Cy5 or CK2β^1-193-Flu; 50 mM Tris/HCl pH 7.5, 25 mM NaCl, 20 mM MgCl2, Tween-20, DMSO; 37 °C, MST power 60%; Monolith NT.115; three independent measurements
[2] = biological target: recombinant human protein kinase CK2 holoenzyme coupled to fluorescein isothiocyanate (FITC) (human) (UniProt P68400)
Chain of recombinant human protein kinase CK2 holoenzyme coupled to fluorescein isothiocyanate (FITC) (human) (P68400 whole entry, chain 1 of 2): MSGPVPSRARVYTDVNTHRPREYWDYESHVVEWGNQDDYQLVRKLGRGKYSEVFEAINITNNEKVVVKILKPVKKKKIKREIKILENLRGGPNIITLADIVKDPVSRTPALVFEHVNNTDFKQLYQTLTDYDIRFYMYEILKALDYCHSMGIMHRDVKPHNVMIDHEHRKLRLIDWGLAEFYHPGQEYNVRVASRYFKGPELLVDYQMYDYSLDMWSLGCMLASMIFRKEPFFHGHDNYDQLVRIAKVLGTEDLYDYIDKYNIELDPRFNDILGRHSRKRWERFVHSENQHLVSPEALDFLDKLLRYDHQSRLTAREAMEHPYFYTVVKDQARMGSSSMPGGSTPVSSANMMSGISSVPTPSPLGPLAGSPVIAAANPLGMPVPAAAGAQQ
Chain of recombinant human protein kinase CK2 holoenzyme coupled to fluorescein isothiocyanate (FITC) (human) (P67870 whole entry, chain 2 of 2, further chain): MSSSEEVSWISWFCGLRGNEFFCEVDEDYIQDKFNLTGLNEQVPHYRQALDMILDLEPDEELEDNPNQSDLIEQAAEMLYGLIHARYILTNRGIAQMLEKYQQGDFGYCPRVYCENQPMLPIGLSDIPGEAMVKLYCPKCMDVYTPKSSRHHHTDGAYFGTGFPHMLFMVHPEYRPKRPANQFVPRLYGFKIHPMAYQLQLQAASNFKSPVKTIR

percent inhibition of (unlabelled) CK2 holoenzyme at 10 µM peptide, CE assay [2]	Binder	Kd [1]
	DCRGLIVMIKLH [peptide B2 (free synthetic peptide)]	2160 nM
< 5%	KHTKGPTAYCPL [peptide B1 (free synthetic peptide)]	
29%	PCPAPRAPKLSI [peptide B4 (free synthetic peptide)]	
< 5%	YRKPHWFIHTRI [peptide B3 (free synthetic peptide)]	
